US10435456B2, “Compositions and methods for increasing the expression and signalling of proteins on cell surfaces” (THE JOHNS HOPKINS UNIVERSITY, priority 2014, dated 2019)
Entries after “also recorded” stand apart in the source; their conditions may differ.

B1: hOR51E2: human olfactory receptor, Flag-tagged construct (protein, UniProt Q9H255 1-320, looked up)
Olfactory receptor 51E2: MSSCNFTHATFVLIGIPGLEKAHFWVGFPLLSMYVVAMFGNCIVVFIVRTERSLHAPMYLFLCMLAAIDLALSTSTMPKILALFWFDSREISFEACLTQMFFIHALSAIESTILLAMAFDRYVAICHPLRHAAVLNNTVTAQIGIVAVVRGSLFFFPLPLLIKRLAFCHSNVLSHSYCVHQDVMKLAYADTLPNVVYGLTAILLVMGVDVMFISLSYFLIIRTVLQLPSKSERAKAFGTCVSHIGVVLAFYVPLIGLSVVHRFGNSLHPIVRVVMGDIYLLLPPVINPIIYGAKTKQIRTRVLAMFKISCDKDLQAVGGK
modifications: Flag tag
notes: human olfactory receptor, Flag-tagged construct
B2: hOR52B2: human homologue of Olfr691, Flag-tagged construct (protein, UniProt Q96RD2 1-323, looked up)
Olfactory receptor 52B2: MSHTNVTIFHPAVFVLPGIPGLEAYHIWLSIPLCLIYITAVLGNSILIVVIVMERNLHVPMYFFLSMLAVMDILLSTTTVPKALAIFWLQAHNIAFDACVTQGFFVHMMFVGESAILLAMAFDRFVAICAPLRYTTVLTWPVVGRIALAVITRSFCIIFPVIFLLKRLPFCLTNIVPHSYCEHIGVARLACADITVNIWYGFSVPIVMVILDVILIAVSYSLILRAVFRLPSQDARHKALSTCGSHLCVILMFYVPSFFTLLTHHFGRNIPQHVHILLANLYVAVPPMLNPIVYGVKTKQIREGVAHRFFDIKTWCCTSPLGS
modifications: Flag tag
notes: human homologue of Olfr691, Flag-tagged construct

How the values were obtained:
mOREG = molecular target: T1, mOREG (Mus musculus, UniProt Q920P2); assay: CRE luciferase reporter assay (Firefly:Renilla), mOREG constructs; format: cell-based, murine; details: Rho-mOREG, Lucy-mOREG, no RTP1S, 100-300 μM eugenol
T1 construct: The mOR-EG full-length construct, containing N-terminal Flag/Rho tags, was a kind gift from Kazushige Touhara; only in the L-EG and L-R-EG constructs) (N, cleaved yes); expressed in transfected cells; host or cells: HEK293T
T1 sequence (Q920P2 1-313): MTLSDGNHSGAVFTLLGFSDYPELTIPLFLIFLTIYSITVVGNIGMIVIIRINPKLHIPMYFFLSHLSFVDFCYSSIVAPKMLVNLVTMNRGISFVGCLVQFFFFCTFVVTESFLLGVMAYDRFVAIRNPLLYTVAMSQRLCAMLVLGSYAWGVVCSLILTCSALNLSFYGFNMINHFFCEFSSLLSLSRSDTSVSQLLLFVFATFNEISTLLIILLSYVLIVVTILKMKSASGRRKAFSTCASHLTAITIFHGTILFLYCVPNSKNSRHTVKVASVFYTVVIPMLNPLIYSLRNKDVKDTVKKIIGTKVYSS
Experimental: The luciferase assay was performed as previously described. Briefly, ORs were transfected into HEK293T cells along with constructs encoding for CREB-dependent luciferase (Firefly) and a constitutively expressed luciferase (Renilla). OR activation leads to a rise in cAMP which drives an increase in Firefly luciferase expression. Firefly activity is normalized to the activity of the Renilla luciferase to control for variation in cell number and transfection efficiency. Data were collected using a FLUOstar Omega automated platereader (BMG LabTech, Cary, N.C.). For some experiments, RTP1S was also transfected.
As mOREG is one of the ORs that reach the cell surface under every condition tested, we expressed the OR with and without the Lucy and Rho tags and assessed its response to eugenol.

Olfr691 = molecular target: T2, Olfr691 (Mus musculus, UniProt Q8VGW5); assay: CRE luciferase reporter assay (Firefly:Renilla), Olfr691 constructs; details: 0.1-5 mM isovaleric acid
T2 sequence (Q8VGW5 1-322): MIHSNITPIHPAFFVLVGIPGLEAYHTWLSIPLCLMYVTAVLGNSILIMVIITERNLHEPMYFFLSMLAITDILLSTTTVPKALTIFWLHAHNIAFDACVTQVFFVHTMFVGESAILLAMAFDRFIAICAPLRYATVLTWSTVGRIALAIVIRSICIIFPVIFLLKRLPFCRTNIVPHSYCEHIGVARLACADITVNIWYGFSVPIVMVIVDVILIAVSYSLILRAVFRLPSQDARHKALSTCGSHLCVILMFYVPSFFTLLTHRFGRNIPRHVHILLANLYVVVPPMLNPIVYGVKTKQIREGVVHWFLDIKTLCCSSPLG

murine Gpr160 = assay: Surface expression of murine Gpr160; format: cell-based; details: HEK293T cells
human GPR160 = assay: Surface expression of human GPR160; format: cell-based; details: HEK293T cells
HEK293T cells = assay: Surface immunocytochemistry of Flag-tagged olfactory receptor constructs; format: cell-based; parameters: key to OR surface expression (trafficking): −: No detectable OR surface expression; +: OR surface expression detected in the majority of fields of view (>90% of all fields of view); *: OR surface expression detected in a minority of fields of view (<50% of all fields of view); details: for OR surface expression (trafficking): HEK293T
Experimental: HEK293T cells were seeded onto 18-mm coverslips coated with poly-L-lysine and transfected with OR constructs with or without accessory proteins (Lipofectamine 2000, Invitrogen). Flag-tagged OR trafficking was assayed using surface immunocytochemistry, as previously described. Briefly, live, non-permeabilized cells at 4° C. were exposed to a rabbit polyclonal anti-Flag antibody in PBS with 0.1% BSA. Subsequently, cells were washed, fixed with 4% paraformaldehyde, permeabilized (0.3% Triton X-100) and then exposed to a mouse monoclonal (M2) anti-Flag antibody. As the external Flag epitope (surface Flag) epitope is ‘blocked’ after binding to the polyclonal Flag antibody, the monoclonal Flag antibody detects only the internal population of ORs. […] Fluorescent secondary antibodies reported the localization of the polyclonal and monoclonal Flag-tags. Cells were visualized for epifluorescence using a Zeiss Axiophot microscope (Thornwood, N.Y.). Images were taken with a CoolSnap Digita Camera (Photometrics, Tucson, Ariz.) and IP Labs software (Biovision, Exton, Pa.). For some experiments, a total of 0.8 μg of accessory plasmids (pcDNA3-RTP1S (modified from RTP1L, kind gift from S. Firestein, Columbia Univ.), pCMV Sport6-Ric8b (purchased from Open Biosystems), and pcDNA3.1-Gαolf (subcloned from a pGEMHE2 Gαolf construct, kind gift from S. Firestein, Columbia Univ.)) or 0.8 μg of an empty pcDNA4.1 vector (OR alone) were co-transfected along with 0.8 μg of the OR. In FIGS. 1 and 2, the immunofluorescent images shown in each row (OR, Rho-OR, Lucy-OR and Lucy-Rho-OR with and without accessory proteins) were transfected and processed simultaneously and image exposures remained constant for each OR. Images represent representative fields of view from at least 4 independent experiments. To assess OR surface expression, the entirety of each coverslip was systematically scanned and scored based on detectable surface immunofluorescence. A ‘+’ was scored for those ORs whose surface expression was detectable in >90% of all fields of view while ORs received an ‘*’ if surface expression was found in <50% of all fields of view. A complete lack of detectable surface expression was scored as a ‘−’. To quantitate cell surface expression using ImageJ (FIG. 14), the background was subtracted from the surface labeled Olfr691 images and the mean fluorescence intensity was measured. The mean intensity was normalized to the mean intensity of the corresponding binary nuclear image, to control for cell number.
ORs were cloned and co-expressed in HEK293T cells without Rho or Lucy tags (OR), with a Rho tag (Rho-OR), with the Lucy tag (Lucy-OR) or with both the Lucy and Rho tags (Lucy-Rho-OR) along with (or without) the chaperone proteins, RTP1S, Ric8b and Gαolf. The cells were then surface labeled with a Flag antibody to detect membrane-associated OR. Images were taken for each OR at equal exposure for all conditions. To assess OR surface expression, the entirety of each coverslip was systematically scanned and scored based on detectable surface immunofluorescence. A ‘+’ was scored for those ORs whose surface expression was detectable in >90% of all fields of view while ORs received an ‘*’ if surface expression was found in <50% of all fields of view. A complete lack of detectable surface expression was scored as a ‘−’.
Many ORs remain orphan receptors due to their inability to traffic in in vitro assays. To establish the trafficking ability of a varied group of ORs, we cloned 15 diverse ORs, the majority of which are orphan receptors which have not been previously reported to reach the cell surface. Live, non-permeabilized HEK 293T cells were surface labeled with a Flag antibody to detect membrane associated receptor and OR surface expression was scored based on detectable surface immunofluorescence. […]

[1] = column 1: OR (Flag tag only, no Rho or Lucy tag), chaperones none
[2] = column 2: OR (Flag tag only), with RTP1S, Ric8b, Gαolf
[3] = column 3: Rho-OR, chaperones none
[4] = column 4: Rho-OR, with RTP1S, Ric8b, Gαolf
[5] = column 5: Lucy-OR, chaperones none
[6] = column 6: Lucy-OR, with RTP1S, Ric8b, Gαolf
[7] = column 7: Lucy-Rho-OR, chaperones none
[8] = column 8: Lucy-Rho-OR, with RTP1S, Ric8b, Gαolf

Molecule	OR surface expression (trafficking) (HEK293T cells; [1])	OR surface expression (trafficking) (HEK293T cells; [2])	OR surface expression (trafficking) (HEK293T cells; [3])	OR surface expression (trafficking) (HEK293T cells; [4])	OR surface expression (trafficking) (HEK293T cells; [5])	OR surface expression (trafficking) (HEK293T cells; [6])	OR surface expression (trafficking) (HEK293T cells; [7])	OR surface expression (trafficking) (HEK293T cells; [8])	further results
C=CCc1ccc(O)c(OC)c1 [eugenol]									OR activation (Firefly:Renilla ratio) (mOREG): dose-dependent activation; also recorded: significantly activated
CC(C)CC(=O)O [isovaleric acid]									OR activation (Firefly:Renilla ratio) (Olfr691; Lucy-Rho-Olfr691 with and without RTP1S): responded to isovaleric acid in a dose-dependent manner; OR activation (Firefly:Renilla ratio) (Olfr691; Rho-Olfr691 co-expressed with RTP1S): dose-dependent increase in the Firefly: Renilla ratio; OR activation (Firefly:Renilla ratio) (Olfr691; Rho-Olfr691 without RTP1S): not significantly activated at any concentration; also recorded: no concentrations of isovaleric acid activated R-691
Lucy tag: 17-amino acid cleavable signal peptide from LRRC32, MRPQILLLLALLTLGLA (SEQ ID NO:3) (Amino acid sequence of Lucy tag)									surface expression of murine Gpr160 (murine Gpr160): promotes surface expression; surface expression of human GPR160 (human GPR160): promotes surface expression
B1	+ (OR surface expression detected in the majority of fields of view (>90% of all fields of view))	+ (OR surface expression detected in the majority of fields of view (>90% of all fields of view))	+ (OR surface expression detected in the majority of fields of view (>90% of all fields of view))	+ (OR surface expression detected in the majority of fields of view (>90% of all fields of view))	+ (OR surface expression detected in the majority of fields of view (>90% of all fields of view))	+ (OR surface expression detected in the majority of fields of view (>90% of all fields of view))	+ (OR surface expression detected in the majority of fields of view (>90% of all fields of view))	+ (OR surface expression detected in the majority of fields of view (>90% of all fields of view))	
B2	−	−	−	−	+ (OR surface expression detected in the majority of fields of view (>90% of all fields of view))	+ (OR surface expression detected in the majority of fields of view (>90% of all fields of view))	+ (OR surface expression detected in the majority of fields of view (>90% of all fields of view))	+ (OR surface expression detected in the majority of fields of view (>90% of all fields of view))	surface trafficking, Rho-tagged vs Lucy-Rho-tagged OR, in words (HEK293T cells; no accessory proteins, 24 h transfection): traffic to the surface with but not without the Lucy tag
